Reference: patent publication US12098378B2, “Anti-fungal polypeptides” (priority 2020, dated 2024)
Residue numbers refer to the chain shown, from its start. Names may count otherwise.

Experiments:
[1] = system: Colletotrichum orbiculare; experiment: Control of anthracnose on squash in glasshouse; assay type: in vivo; settings: 175, 350, 700 g ai/ha, 4 applications; until 2 weeks after the last application; vs non-treated inoculated control (FIG. 18)
Method: Four replicates of pot-grown squash plants (2 plants/pot) were sprayed with 125 ml aqueous suspension, containing a concentration of active ingredient as described in Table 2. Four applications were done spaced 6 or 7 days apart. Plants were inoculated once with Colletotrichum orbiculare two days after the first application (application A) of active ingredient. The efficacy of 10G11Q was compared to that of a non-treated control and the chemical reference Bravo WS (Chlorothalonil).
Disease severity is recorded as percent severity on a scale of 0-100%. Recording started when first symptoms appeared followed by regular assessment till 2 weeks after the fourth application (application D) of the active ingredient.

Botrytis cinerea R16 [2] = experiment: In vitro antifungal assay, IncuCyte Zoom monitoring of fungal growth from spore suspension; assay type: cell-based
Method: (§1) Two-fold dilutions of purified VHH 10G11Q were prepared in 96-well microtiter plates. To 20 μl of these dilutions and to 20 μl of water as a control, 80 μl of fungal spore suspension (1 E+05 spores/ml in half strength potato dextrose broth (PDB)) were added, starting with a final VHH 10G11Q concentration of 10 μM. The test plates were incubated for 36 h at 25° C. using the IncuCyte Zoom live cell imaging system. All tests were performed in at least 2 replicates.
as §1, with “VHH 10G11Q and 41D01 were prepared” for “VHH 10G11Q were prepared”, “concentration of 40 μM. The” for “concentration of 10 μM. The”, “incubated for 48 h at” for “incubated for 36 h at”
Microplate graphs were generated using the time plot feature in the graph/export menu of the IncuCyte® Base Analysis Software. Raw data for confluence of treated samples at mid log growth were exported to GraphPad Prism 8 and plotted as a semi logarithmic function of the standard concentrations. IC50 values are extrapolated after fitting the data with a four-parameter logistic regression curve. Pathogen sensitivity is measured based on the IC50, which refers to the concentration (μM) that inhibits 50% of spore germination and/or mycelial growth.

Botrytis cinerea R16 [3] = settings: several test strains, including Botrytis cinerea R16; WO2014/177595 A1 and WO2014/191146 A1; cited from earlier work
Botrytis cinerea R16 [4] = experiment: Prolonged incubation antifungal assay followed over 14 days; assay type: cell-based; settings: followed over a period of 14 days (FIG. 9)
Method: as §1, with “The test plates were incubated for 36 h at 25° C. using the IncuCyte Zoom live cell imaging system.” left out

Fraction 3 = experiment: ELISA with biotinylated liposomes on streptavidin-coated plates; assay type: binding, Botrytis cinerea; settings: screen for additional Fraction 3 binders (FIG. 13)
Source text: Dissociation constants (Kd) can be estimated based on the results of an ELISA. In equilibrium analysis as in ELISA, the Kd can be calculated from the equilibrium binding response. Where the ELISA plate wells are coated with a target antigen, and where the target antigen may be a lipid-containing fraction of the membrane of Botrytis cinerea, such a method may further use a range of concentrations of a polypeptide binding the target antigen. Where the ELISA generally provides a quantitative adsorption measure for each polypeptide concentration representing binding of the polypeptide to the target antigen, the range of concentration of a polypeptide may for example be 0.5, 1, 2.5, 5, and 10 μM. The most suitable range of concentrations used can vary depending on the affinity of the polypeptide to the target antigen. The corresponding absorption values as determined by ELISA may result in a sigmoid curve when absorption values are plotted against the logarithmic conversion of the polypeptide concentrations. This sigmoid curve may serve to define an IC50 value. Where this IC50 is the concentration of polypeptide where the corresponding absorption value is 50% of the saturated value as estimated by the maximum of the sigmoidal function, the Kd can be estimated by 1/Ka were the association constant (Ka) can be estimated as 1/IC50. Thus Kd corresponds to the analyte concentration that reaches equilibrium at 50% binding saturation. Commonly computation methods can be used for these calculations. For example, this can be done using GraphPad. In some embodiments, the Kd may be determined by surface plasmon resonance (SPR).
The above-mentioned method for the formation of liposomes (Example 12) was modified with the addition of a biotinylated lipid (12:0 Biotinyl M G (1-(12-N-biotin)aminododecanoyl-rac-glycerol), Sigma Aldrich), to allow for use of these liposomes for ELISA using streptavidin-coated plates (Pierce™ Streptavidin Coated High Capacity Plates, Clear, 96-Well, blocked with SuperBlock™ Buffer, Thermo Fisher Scientific).
To estimate the dissociation constant Kd value of 10G11 binding to Fraction 3, the ELISA set-up with biotinylated liposomes from Fraction 3 as described in Example 13 was used. 10G11 polypeptide was added in the following concentrations: 0.5, 1, 2.5, 5, and 10 μM, prepared by a serial dilution in phosphate buffer. […] This plot was used to estimate the Kd dissociation constant using GraphPad. Where non-linear regression fitting was used.

B1: 10G11Q: VHH polypeptide, SEQ ID NO: 1, begins with a Q residue (protein)
VHH: QVQLVESGGGLVQAGGSLRLSCAASRSIFSINAMDWYRQAPGKQREWVAGITRGGTTKYADSVKGRFTISRDNAKKKVYLQMNSLKPEDTAVYYCNVLRGEQPWTRDYWGQGTQVTVSS
**Q.** For B1, which “percent severity of anthracnose on squash” value [1] is on record?
**A.** clear and dose-related growth inhibition pattern

**Q.** What about the “% fungal growth (total green object area) in function of VHH concentration” value (Botrytis cinerea R16 [2]; two-fold dilutions from 10 μM, 36 h at 25° C. (FIG. 1)) of the same molecule?
**A.** clear dose-dependent growth inhibition pattern

**Q.** What about the “growth inhibition compared to VHH 41D01” value (Botrytis cinerea R16 [2]; two-fold dilutions from 40 μM, 48 h at 25° C. (FIG. 2)) of the same molecule?
**A.** more prominent growth inhibition pattern

B2: 41D01: anti-glucosylceramide binding VHH described in WO2014/177595 A1 and WO2014/191146 A1 (protein)
VHH: QVQLQESGGGLVQAGGSLRLSCAASGRTFSRYGMGWFRQLPGKQRELVTSITRGGTTTYADSVKGRFTISRDNAKNTVYLQMNSLKPEDTAVYYCNARSIWRDYWGQGTQVTVSS
modifications: left off: small tags and cut ends
**Q.** With B2 as the molecule, how does the “antifungal activity among anti-glucosylceramide binding VHHs” value (Botrytis cinerea R16 [3]) read?
**A.** most prominent antifungal activity

B3: 10G11Q-His: 10G11Q polypeptide with a C-terminal addition of a 6× His-Tag (SEQ ID NO: 148) (protein)
VHH: QVQLQESGGGLVQAGGSLRLSCAASRSIFSINAMDWYRQAPGKQREWVAGITRGGTTKYADSVKGRFTISRDNAKKKVYLQMNSLKPEDTAVYYCNVLRGEQPWTRDYWGQGTQVTVSSAAAHHHHHH
modifications: C-terminal 6xHis tag
**Q.** With B3 as the molecule, how does the “antifungal activity of his-tagged variant relative to 10G11Q” value (Botrytis cinerea R16 [2]; assay as in Example 5 (FIG. 4)) read?
**A.** significantly improved anti-fungal activity

B4: Mutant 6: 10G11 charge variant: S27H, I28H and S30H substitutions in CDR1 (SEQ ID NO: 12) (protein)
VHH: B1 VHH with Q1D, S27H, I28H, S30H
**Q.** With B4 as the molecule, how does the “antifungal activity of charge variants relative to 10G11” value (Botrytis cinerea R16 [2]; assay as in Example 5 (FIG. 6)) read?
**A.** on par antifungal activity with 10G11

B5: Mutant 7: 10G11 charge variant: W100aH and T100bH substitutions in CDR3 (SEQ ID NO: 13) (protein)
VHH: B1 VHH with Q1D, W104H, T105H
**Q.** With B5 as the molecule, how does the “antifungal activity of charge variants relative to 10G11” value (Botrytis cinerea R16 [2]; assay as in Example 5 (FIG. 6)) read?
**A.** on par antifungal activity with 10G11

B6: Mutant 8: 10G11 charge variant: S27H, I28H, S30H in CDR1 and W100aH, T100bH in CDR3 (SEQ ID NO: 14) (protein)
VHH: B1 VHH with Q1D, S27H, I28H, S30H, W104H, T105H
**Q.** Which “antifungal activity of charge variants relative to 10G11” value (Botrytis cinerea R16 [2]; assay as in Example 5 (FIG. 6)) does the source give for B6 here?
**A.** significant increase in antifungal activity

B7: Mutant 9: 10G11 charge variant: S27K, I28K and S30K substitutions in CDR1 (SEQ ID NO: 15) (protein)
VHH: B1 VHH with Q1D, S27K, I28K, S30K
**Q.** What does the source list for B7?
**A.** effect on preventing spore outgrowth (Botrytis cinerea R16 [4]): sustained effect on preventing spore outgrowth; antifungal activity of charge variants relative to 10G11 (Botrytis cinerea R16 [2]; assay as in Example 5 (FIG. 6)): significant increase in antifungal activity

B8: Mutant 10: 10G11 charge variant: W100aK and T100bK substitutions in CDR3 (SEQ ID NO: 16) (protein)
VHH: B1 VHH with Q1D, W104K, T105K
**Q.** Which “antifungal activity of charge variants relative to 10G11” value (Botrytis cinerea R16 [2]; assay as in Example 5 (FIG. 6)) does the source give for B8 here?
**A.** significant increase in antifungal activity

B9: Mutant 11: 10G11 charge variant: S27K, I28K, S30K in CDR1 and W100aK, T100bK in CDR3 (SEQ ID NO: 17) (protein)
VHH: B1 VHH with Q1D, S27K, I28K, S30K, W104K, T105K
**Q.** Which “effect on preventing spore outgrowth” value (Botrytis cinerea R16 [4]) does the source give for B9 here?
**A.** sustained effect on preventing spore outgrowth

**Q.** And the “antifungal activity of charge variants relative to 10G11” value (Botrytis cinerea R16 [2]; assay as in Example 5 (FIG. 6))?
**A.** significant increase in antifungal activity

**Q.** And the “increase in anti-fungal activity over 10G11” value (Botrytis cinerea R16 [2]; assay as in Example 5 (FIG. 6))?
**A.** up to 5 fold

B10: 10E11Q: VHH polypeptide, SEQ ID NO: 3 (protein)
VHH: QVQLQESGGGLVQAGGSLRLSCAASGTIFRPTAMGWYRQAPGKERELVATITTGGSTKYADSVKGRFTISRGNAKNTVYLQMSSLKPEDTAVYYCNAQWGVRTRDYWGQGTQVTVSS
**Q.** With B10 as the molecule, how does the “binding to Fraction 3 by ELISA” value (Fraction 3) read?
**A.** Fraction 3 binding

B11: 12C03Q: VHH polypeptide, SEQ ID NO: 5 (protein)
VHH: QVQLQESGGGLVQAGDSLRLSCAASISDRAFSRHVMGWFRQPPGKEREFVAAIGWTGRRTYYADSVKGRFTISRDNAMNTVYLQMNSLKPEDTAVYYCAASHFYSVSFEINDYDYWGQGTQVTVSS
**Q.** Which “binding to Fraction 3 by ELISA” value (Fraction 3) does the source give for B11 here?
**A.** Fraction 3 binding
